According to the supplement of paper PMC9112550, “Optimization of the antimicrobial peptide Bac7 by deep mutational scanning” (BMC Biology, 2022):

Test system: Escherichia coli TOP10
Assay: shrunken log2 fold change of peptide-encoding DNA abundance (4.5 h post-induction vs induction); higher = less antimicrobial activity (less host growth inhibition)
Conditions: time post-induction: 4.5 h; library: site-saturation at positions 5, 18, 19, 20
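Also: peptides expressed intracellularly from a pBAD plasmid library in pooled LB shake-flask culture, induced with 0.3% L-arabinose, DNA abundance read by NGS, three biological replicates, DESeq2 with apeglm shrinkage.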

First: RRIRPRPPRLPRPRPRPSAYPRP
Second: RRIRPRPPRLPRPRPRPSCWPRP
The “shrunken log2 fold change” value of the first is lower: -0.386 for the first, 0.36 for the second.

Compared with RRIRPRPPRLPRPRPRPSDYPRP, RRIRPRPPRLPRPRPRPSGTPRP is higher in “shrunken log2 fold change” value: -0.691 for the first, 0.669 for the second.

RRIRPRPPRLPRPRPRPSGVPRP and RRIRPRPPRLPRPRPRPSKAPRP are within 0.2 log units of each other in “shrunken log2 fold change” value: -0.0831 for the first, -0.175 for the second.

RRIRPRPPRLPRPRPRPSKLPRP and RRIRPRPPRLPRPRPRPSKNPRP are within 0.2 log units of each other in “shrunken log2 fold change” value: -0.224 for the first, -0.333 for the second.

First: RRIRPRPPRLPRPRPRPSKSPRP
Second: RRIRPRPPRLPRPRPRPSLGPRP
The “shrunken log2 fold change” value of the first is lower: -0.123 for the first, 0.342 for the second.

Going from RRIRPRPPRLPRPRPRPSLSPRP to RRIRPRPPRLPRPRPRPSMKPRP, the “shrunken log2 fold change” value falls from 0.022 to -0.223.

First: RRIRPRPPRLPRPRPRPSMSPRP
Second: RRIRPRPPRLPRPRPRPSNCPRP
The “shrunken log2 fold change” value of the first is higher: -0.409 for the first, -0.909 for the second.

Compared with RRIRPRPPRLPRPRPRPSPGPRP, RRIRPRPPRLPRPRPRPSQEPRP is lower in “shrunken log2 fold change” value: 0.0372 for the first, -0.199 for the second.

RRIRPRPPRLPRPRPRPSQFPRP and RRIRPRPPRLPRPRPRPSRDPRP are within 0.2 log units of each other in “shrunken log2 fold change” value: -0.0669 for the first, -0.109 for the second.

Compared with RRIRPRPPRLPRPRPRPSRWPRP, RRIRPRPPRLPRPRPRPSSNPRP is lower in “shrunken log2 fold change” value: 0.611 for the first, -0.388 for the second.

First: RRIRPRPPRLPRPRPRPSTLPRP
Second: RRIRPRPPRLPRPRPRPSTVPRP
The “shrunken log2 fold change” value of the first is higher: -0.139 for the first, -0.687 for the second.

RRIRPRPPRLPRPRPRPSVGPRP and RRIRPRPPRLPRPRPRPSVKPRP are within 0.2 log units of each other in “shrunken log2 fold change” value: -0.295 for the first, -0.277 for the second.

RRIRPRPPRLPRPRPRPSVQPRP and RRIRPRPPRLPRPRPRPSWAPRP are within 0.2 log units of each other in “shrunken log2 fold change” value: -0.0553 for the first, 0.0666 for the second.

RRIRPRPPRLPRPRPRPSYAPRP and RRIRPRPPRLPRPRPRPSYPPRP are within 0.2 log units of each other in “shrunken log2 fold change” value: -0.106 for the first, -0.181 for the second.

Compared with RRIRPRPPRLPRPRPRPTAEPRP, RRIRPRPPRLPRPRPRPTARPRP is lower in “shrunken log2 fold change” value: 0.595 for the first, 0.352 for the second.

Going from RRIRPRPPRLPRPRPRPTAWPRP to RRIRPRPPRLPRPRPRPTCEPRP, the “shrunken log2 fold change” value falls from 0.666 to 0.252.

Compared with RRIRPRPPRLPRPRPRPTCMPRP, RRIRPRPPRLPRPRPRPTDHPRP is lower in “shrunken log2 fold change” value: 0.219 for the first, -0.114 for the second.

RRIRPRPPRLPRPRPRPTDKPRP and RRIRPRPPRLPRPRPRPTDNPRP are within 0.2 log units of each other in “shrunken log2 fold change” value: 0.0429 for the first, -0.134 for the second.

Compared with RRIRPRPPRLPRPRPRPTDYPRP, RRIRPRPPRLPRPRPRPTEVPRP is lower in “shrunken log2 fold change” value: -0.132 for the first, -0.342 for the second.

Going from RRIRPRPPRLPRPRPRPTFFPRP to RRIRPRPPRLPRPRPRPTGIPRP, the “shrunken log2 fold change” value rises from 0.212 to 0.726.

Going from RRIRPRPPRLPRPRPRPTGQPRP to RRIRPRPPRLPRPRPRPTHQPRP, the “shrunken log2 fold change” value rises from 0.152 to 0.615.

RRIRPRPPRLPRPRPRPTICPRP and RRIRPRPPRLPRPRPRPTKTPRP are within 0.2 log units of each other in “shrunken log2 fold change” value: 0.172 for the first, 0.132 for the second.

RRIRPRPPRLPRPRPRPTLFPRP and RRIRPRPPRLPRPRPRPTPIPRP are within 0.2 log units of each other in “shrunken log2 fold change” value: 0.2 for the first, 0.336 for the second.

RRIRPRPPRLPRPRPRPTPLPRP and RRIRPRPPRLPRPRPRPTPVPRP are within 0.2 log units of each other in “shrunken log2 fold change” value: 0.453 for the first, 0.379 for the second.

RRIRPRPPRLPRPRPRPTQTPRP and RRIRPRPPRLPRPRPRPTRNPRP are within 0.2 log units of each other in “shrunken log2 fold change” value: 0.147 for the first, 0.201 for the second.

First: RRIRPRPPRLPRPRPRPTRTPRP
Second: RRIRPRPPRLPRPRPRPTSRPRP
The “shrunken log2 fold change” value of the first is higher: 0.508 for the first, -0.0592 for the second.

RRIRPRPPRLPRPRPRPTTEPRP and RRIRPRPPRLPRPRPRPTTHPRP are within 0.2 log units of each other in “shrunken log2 fold change” value: 0.109 for the first, 0.0944 for the second.

RRIRPRPPRLPRPRPRPTWHPRP and RRIRPRPPRLPRPRPRPTWIPRP are within 0.2 log units of each other in “shrunken log2 fold change” value: 0.316 for the first, 0.184 for the second.

First: RRIRPRPPRLPRPRPRPTWPPRP
Second: RRIRPRPPRLPRPRPRPTYLPRP
The “shrunken log2 fold change” value of the first is higher: 0.47 for the first, -0.113 for the second.

RRIRPRPPRLPRPRPRPVAWPRP and RRIRPRPPRLPRPRPRPVDAPRP are within 0.2 log units of each other in “shrunken log2 fold change” value: 0.225 for the first, 0.173 for the second.

Compared with RRIRPRPPRLPRPRPRPVDPPRP, RRIRPRPPRLPRPRPRPVDSPRP is lower in “shrunken log2 fold change” value: 0.0557 for the first, -0.177 for the second.

RRIRPRPPRLPRPRPRPVEDPRP and RRIRPRPPRLPRPRPRPVFGPRP are within 0.2 log units of each other in “shrunken log2 fold change” value: 0.0885 for the first, 0.206 for the second.

Going from RRIRPRPPRLPRPRPRPVFIPRP to RRIRPRPPRLPRPRPRPVFQPRP, the “shrunken log2 fold change” value rises from -0.235 to 0.315.

Compared with RRIRPRPPRLPRPRPRPVGGPRP, RRIRPRPPRLPRPRPRPVGNPRP is lower in “shrunken log2 fold change” value: 0.408 for the first, -0.0903 for the second.

RRIRPRPPRLPRPRPRPVHVPRP and RRIRPRPPRLPRPRPRPVKKPRP are within 0.2 log units of each other in “shrunken log2 fold change” value: 0.18 for the first, -0.016 for the second.

RRIRPRPPRLPRPRPRPVKTPRP and RRIRPRPPRLPRPRPRPVLNPRP are within 0.2 log units of each other in “shrunken log2 fold change” value: 0.0289 for the first, -0.113 for the second.

First: RRIRPRPPRLPRPRPRPVLSPRP
Second: RRIRPRPPRLPRPRPRPVMRPRP
The “shrunken log2 fold change” value of the first is lower: 0.076 for the first, 0.95 for the second.

RRIRPRPPRLPRPRPRPVMSPRP was tested, and the “shrunken log2 fold change” value was 0.0198.
